Laboratory results from article PMC6529188 (Cell, 2019).
Where no end group is shown, it is not given here.

What was measured:
[1] = biological target: the molecule itself; assay: SDS-PAGE without boiling of bicelle-reconstituted protein
cross-linking = biological target: the molecule itself; assay: cross-linking

PGSLSGIIIGVTVAAVVLIVAVFVCKSLLWKKVLP (domain or fragment, UniProt O14763-1 208-242, looked up) [DR5^TMH (human DR5 isoform 1 residues 208-242, C209G), wild type]
stoichiometry N [1]: 3

PGSLSGIIIGVTVAAVVLIYAVFVCKSLLWKKVLP (domain or fragment, human, UniProt O14763-1 208-242, looked up) [DR5^TMH V227Y mutant]
stoichiometry N [1]: 3

PGSLSGIIIYVTVAAVVLIVAVFVCKSLLWKKVLP (domain or fragment, human, UniProt O14763-1 208-242, looked up, also: His6-tagged, active amine groups blocked with Sulfo-NHS Acetate) [His6-tagged DR5^TMH G217Y mutant (for OG-label)]
stoichiometry N (cross-linking): 3

PGSLSGIIIGVTVAAVVLIYAVFVCKSLLWKKVLP (domain or fragment, human, UniProt O14763-1 208-242, looked up, also: His6-tagged, active amine groups blocked with Sulfo-NHS Acetate) [His6-tagged DR5^TMH V227Y mutant (for OG-label)]
stoichiometry N (cross-linking): 6

PGSLSGIIIYVTVAAVVLIVAVFVCKSLLWKKVLP (domain or fragment, human, UniProt O14763-1 208-242, looked up) [DR5^TMH G217Y mutant]
stoichiometry N [1]: 3

PGSLSGIIIGVTVAAVVLIVAVFVCKSLLWKKVLP (domain or fragment, human, UniProt O14763-1 208-242, looked up, also: His6-tagged, active amine groups blocked with Sulfo-NHS Acetate) [His6-tagged DR5^TMH, wild type (for OG-label)]
stoichiometry N (cross-linking): 6
